According to patent US20190040115A1 (IMMATICS BIOTECHNOLOGIES, published 2019):

Biological target: T1, HLA-A*02:01 (human)
T1 construct: captured on streptavidin plates; also called peptide-receptive MHC molecules
Test: UV peptide exchange ELISA (anti-b2m); yield grade: + >10%, ++ >20%, +++ >50, ++++ >75%
Description: Candidate peptides for T cell based therapies according to the present invention were further tested for their MHC binding capacity (affinity). The individual peptide-MHC complexes were produced by UV-ligand exchange, where a UV-sensitive peptide is cleaved upon UV-irradiation, and exchanged with the peptide of interest as analyzed. Only peptide candidates that can effectively bind and stabilize the peptide-receptive MHC molecules prevent dissociation of the MHC complexes. To determine the yield of the exchange reaction, an ELISA was performed based on the detection of the light chain (β2m) of stabilized MHC complexes. The assay was performed as generally described in Rodenko et al. (Rodenko et al., 2006).
96 well MAXISorp plates (NUNC) were coated over night with 2 ug/ml streptavidin in PBS at room temperature, washed 4× and blocked for 1 h at 37° C. in 2% BSA containing blocking buffer. Refolded HLA-A*02:01/MLA-001 monomers served as standards, covering the range of 15-500 ng/ml. Peptide-MHC monomers of the UV-exchange reaction were diluted 100 fold in blocking buffer. Samples were incubated for 1 h at 37° C., washed four times, incubated with 2 ug/ml HRP conjugated anti-β2m for 1 h at 37° C., washed again and detected with TMB solution that is stopped with […]. Absorption was measured at 450 nm. Candidate peptides that show a high exchange yield (preferably higher than 50%, most preferred higher than 75%) are generally preferred for a generation and production of antibodies or fragments thereof, and/or T cell receptors or fragments thereof, as they show sufficient avidity to the MHC molecules and prevent dissociation of the MHC complexes.

Binder | peptide exchange yield
KIEDLIKYL | 50 to 75%
AIHTAILTL | 20 to 50%
FLDSEVSEL | 50 to 75%
FLPFLTTEV | > 75%
LLDPTNVFI | > 75%
LLKDSIVQL | 50 to 75%
ALDEPTTNL | 50 to 75%
ILDEPTNHL | 20 to 50%
IAAGIFNDL | 10 to 20%
ALDSGFNSV | > 75%
KILPDLNTV | > 75%
LLEPFVHQV | > 75%
FLETNVPLL | 50 to 75%
ALEPIDITV | 50 to 75%
KALQFLEEV | > 75%
ILDDVAMVL | 50 to 75%
KVPEIEVTV | > 75%
LLEEINHFL | 50 to 75%

Binder | peptide exchange yield
EVISKLYAV | 50 to 75%
GLDIITNKV | 50 to 75%
KLLELQELVL | > 75%
FLPRKFPSL | > 75%
IVDNTTMQL | 50 to 75%
EVVDKINQV | 10 to 20%
FLNLFNHTL | > 75%
FLLEQEKTQAL | > 75%
FIDPEQIQV | 50 to 75%
GLDSGFHSV | > 75%
FLNEDISKL | 50 to 75%
KMVGDVTGA | 50 to 75%
FLGDPPPGL | 50 to 75%
ALADLQEAV | > 75%
FMYNFQLVTL | 20 to 50%
KLFTQIFGV | > 75%
LLPELRDWGV | 50 to 75%
HLDEARTLL | > 75%

Now from value to binder:

peptide exchange yield | Binder
> 75% | VQIGDIVTV
50 to 75% | SLIDRTIKM
50 to 75% | VLMEMSYRL
50 to 75% | RMDEEFTKI
20 to 50% | YSDDIPHAL
> 75% | VLFGAVITGA
50 to 75% | LLYEDIPDKV
> 75% | VLNEYFHNV
50 to 75% | VLFPMDLAL
> 75% | TLLHFLAEL
> 75% | VLFKDPVSV
50 to 75% | SLPRPTPQA
50 to 75% | SLVAILHLL
50 to 75% | NMMSGISSV
50 to 75% | VVVDPIQSV
50 to 75% | SILDGLIHL

peptide exchange yield | Binder
> 75% | QLYNQIIKL
> 75% | SLYSYFQKV
50 to 75% | SAAEPTPAV
> 75% | VISPHGIASV
50 to 75% | TLDDIMAAV
50 to 75% | SLLPTEQPRL
> 75% | TLWYVPLSL
50 to 75% | STLHLVLRL
50 to 75% | RVAFKINSV
50 to 75% | VLAVLGAVVAV
> 75% | LLSEIEEHL
> 75% | SLKSKVLSV
> 75% | YLDKMNNNI
50 to 75% | VLLGENVEL
> 75% | VLYNESLQL
